Paper PMC5626966, “Molecular and Physiological Logics of the Pyruvate-Induced Response of a Novel Transporter in Bacillus subtilis” (mBio, 2017)

Columns and labels:
[1] = molecular target: T1, PftAB (YsbAB) pyruvate-facilitated transporter (Bacillus subtilis, UniProt P94515+P94516); experiment: transport in growing cells, extracellular pyruvate by HPLC, fit of facilitated transport model; format: cell-based; conditions: B. subtilis cells, M9 minimal medium; model estimate of facilitated transport (Text S1, Table S2)
T1 construct: gene lrgA; full-length untagged pftAB in B. subtilis cells (WT, delta-pftAB, IPTG-inducible Phs-pftAB strains)

[2] = molecular target: T2, LytT (His6-LytT) (Bacillus subtilis (168?)) (UniProt P94514); experiment: EMSA; conditions: EMSA: LytT with 50 ng DNA and 50 µg/ml poly(dI-dC); CcpA with 10 ng DNA and 400 µg/ml salmon sperm DNA; 6% or 8% native acrylamide gel in TAE; binding buffer …
T2 sequence: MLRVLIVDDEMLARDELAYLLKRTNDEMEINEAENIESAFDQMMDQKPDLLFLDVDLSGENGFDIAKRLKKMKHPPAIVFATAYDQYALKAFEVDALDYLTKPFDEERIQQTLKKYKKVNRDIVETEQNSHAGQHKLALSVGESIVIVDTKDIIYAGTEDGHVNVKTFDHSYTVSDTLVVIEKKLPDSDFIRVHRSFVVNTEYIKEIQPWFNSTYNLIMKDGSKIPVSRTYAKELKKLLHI

T1 sequence (P94515 whole entry): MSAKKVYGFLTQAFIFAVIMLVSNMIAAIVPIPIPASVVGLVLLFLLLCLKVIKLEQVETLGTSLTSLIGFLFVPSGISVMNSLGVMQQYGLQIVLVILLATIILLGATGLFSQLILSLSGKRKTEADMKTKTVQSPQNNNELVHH
T1 sequence (P94516 whole entry): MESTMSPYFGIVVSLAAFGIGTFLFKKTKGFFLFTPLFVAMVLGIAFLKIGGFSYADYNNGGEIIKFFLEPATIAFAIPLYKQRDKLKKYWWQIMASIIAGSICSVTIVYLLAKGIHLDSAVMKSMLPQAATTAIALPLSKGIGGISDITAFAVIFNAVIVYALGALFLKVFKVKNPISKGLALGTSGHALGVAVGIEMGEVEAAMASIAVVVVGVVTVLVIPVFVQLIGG

Row | Km (apparent affinity constant) [1] | Compound | binding [2]
1 | ~ 1.0 ± 0.1 mmol ⋅ liter^−1 | CC(=O)C(=O)O [pyruvate] | –
2 | – | CCATGGTTTAATTCAACGTATAATCTGATCATGAAAGACGGATCGAAAATACCGGTCAGCCGGACATATGCGAAGGAATTGAAAAAGCTGCTCCATATTTGATGGGCGGCTTTTTGCATTTCAGCCATTTGATTCTGCAACTCAGACCCGCTATACGGCATGTTATCTTGTAAGCGCTTTATAACAGGGAATTCTTATTTATAATGAGGGTACCAAAGAGAAAGAGGTGAAGAAAATGAGTGCTAAAAAAGTGTACG (double strand) [PpftAB 257 bp] | binds
3 | – | CCATGGTTTAATTCAACGTATAATCTGATCATGAAAGACGGATCGAAAATACCGGTCAGCCGGACATATGCGAAGGAATTGAAAAAGCTGCTCCATATTTGATGGGCGGCTTTTTGCATTTCAGCCATTTGATTCTGCAACTCAGACCCGCTATACGGCATGTTATCTTGTAAGCGCTTTATAACAGGGAATTCTTATTTATAATGAGGGTACCAAAGAGAAAGAGGTGAAGAAAATGAGTGCTAAAAAAGTGTACG (double strand) [PpftAB reporter strain fragment 267 bp] | binds
